Source: PMC10901373, “An unusual dual sugar-binding lectin domain controls the substrate specificity of a mucin-type O-glycosyltransferase” (Science Advances, 2024)
Residue numbers refer to the chain shown, from its start. Each block holds one binder with its values, some of them ahead of it. No end group written: not given here. *: point of attachment. αGalNAc = CC(=O)N[C@@H]1[C@@H](O)[C@@H](O)[C@@H](CO)O[C@@H]1*

What was measured:
[1] = target: T1, mouse GalNAc-T1 (pKN55-His6-TEV-mGalNAc-T1-∆56) (mouse, UniProt O08912 57-559); assay: crystal structure; mouse GalNAc-T1 (5 mg/ml) combined with 4 mM Muc5AC-13, 5 mM UDP and 5 mM MnCl2; hanging drops, 20% PEG-3350, 0.1 M MES pH 6.5; 2.3 Å; conditions: both partners purified
T1 construct: mouse polypeptide N-acetylgalactosaminyltransferase 1 (GalNAc-T1), construct printed as mGalNAc-T1-∆56 (read as lacking the first 56 residues); 98% identical to human GalNAc-T1; The construct has a TEV site after the His6 tag; The start at residue 57 is read from the name ∆56; also called N-acetylgalactosaminyl-transferase 1; source: SD200 16/60 gel filtration before crystallization
T1 sequence (looked up): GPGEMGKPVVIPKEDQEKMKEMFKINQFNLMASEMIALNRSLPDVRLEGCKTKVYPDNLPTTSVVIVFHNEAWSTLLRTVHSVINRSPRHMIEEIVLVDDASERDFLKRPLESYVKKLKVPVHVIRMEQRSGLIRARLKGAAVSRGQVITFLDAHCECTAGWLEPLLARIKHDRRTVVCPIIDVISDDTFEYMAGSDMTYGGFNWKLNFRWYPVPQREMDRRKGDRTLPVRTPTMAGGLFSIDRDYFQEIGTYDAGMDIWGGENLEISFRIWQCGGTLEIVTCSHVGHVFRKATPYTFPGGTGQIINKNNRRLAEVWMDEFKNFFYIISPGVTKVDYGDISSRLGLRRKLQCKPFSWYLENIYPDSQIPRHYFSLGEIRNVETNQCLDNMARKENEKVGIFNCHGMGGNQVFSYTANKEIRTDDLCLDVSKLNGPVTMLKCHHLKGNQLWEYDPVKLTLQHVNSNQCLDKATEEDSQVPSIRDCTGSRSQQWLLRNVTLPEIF

[2] = target: T2, human GalNAc-T1 D484A (β repeat variant) (human) (UniProt Q10472)
T2 sequence: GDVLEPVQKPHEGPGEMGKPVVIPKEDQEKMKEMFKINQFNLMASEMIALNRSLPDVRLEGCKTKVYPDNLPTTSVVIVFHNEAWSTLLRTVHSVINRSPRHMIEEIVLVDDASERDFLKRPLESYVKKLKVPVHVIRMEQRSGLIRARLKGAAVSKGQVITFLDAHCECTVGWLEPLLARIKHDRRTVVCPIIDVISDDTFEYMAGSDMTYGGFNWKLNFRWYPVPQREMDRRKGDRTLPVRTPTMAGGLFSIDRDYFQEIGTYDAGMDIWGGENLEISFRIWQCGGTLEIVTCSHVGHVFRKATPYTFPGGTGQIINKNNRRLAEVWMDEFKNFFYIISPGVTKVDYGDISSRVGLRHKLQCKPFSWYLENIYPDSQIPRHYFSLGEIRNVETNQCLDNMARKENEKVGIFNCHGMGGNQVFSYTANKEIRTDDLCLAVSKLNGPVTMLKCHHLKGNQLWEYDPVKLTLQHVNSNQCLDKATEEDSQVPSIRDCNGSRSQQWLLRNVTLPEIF

[3] = target: T3, human GalNAc-T1 D444A (α repeat variant) (human) (UniProt Q10472)
T3 sequence: T2 sequence with D400A, A440D

binding result [1]: binds
B1: Muc5AC-13 glycopeptide (GTT3PSPVPTTSTT13^GalNAcSAP) (peptide)
peptide: GTTPSPVPTTSTT(αGalNAc)SAP
notes: Muc5AC mucin repeat peptide, 16 residues; numbers count on: the peptide; source: synthetic peptide (Anaspec)

KM (UDP-Glo), fold increase compared to GalNAc-T1^WT [2]: 20 fold
kcat/KM (UDP-Glo), fold decrease compared to GalNAc-T1^WT [2]: 29 fold
Binder: GATPAPVPAGAGT(αGalNAc)PAP [Muc5AC-A13 glycopeptide (GAT3…13^GalNAcPAP)]

KM (UDP-Glo), fold increase compared to GalNAc-T1^WT [3]: 10 fold
kcat/KM (UDP-Glo), fold reduction compared to GalNAc-T1^WT [3]: 16 fold
Binder: GAT(αGalNAc)PAPVPAGAGTPAP [Muc5AC-A3 glycopeptide (GAT3^GalNAc…13PAP)]
